B1: Flag-CNK^2–549 [Drosophila] / GST-HYP [Drosophila] (parent complex)
chain 1: AYINIAEWTPDQVTDWIKGLDESMKGYLYEFSKQEIGGRALLNIRPYELENLGMLRIGHQEIVLEAVENLRNFHYHLKNDNLQFMALHVATAAKNLHRELARNHAESTKIDTRILHDITRTIATLKPLVGSLERTPFRKQEMYREYCGNVLKCGLELATIAHRDRFALQPVPAIRQSAERLENLANFVIQDISDPMVLQPASLNLVTLKKRESELGFNIESSYNGIHRVTDIKYNSPAHNSGKIEDGDEIVQINYQTVVGWQHRTVLEHLREALPDVVLTVKKRPKHTKMFGQIYMQPYRLPSKKRNMAARWAAQMPSPRAAFLTLDTEQLATGGTGSAVPDPSKSLSSEKREVLTKANPVSSASDSDSSCSDIPTPTDPKLAAREIRLYYPKPRALLQRRNTICGCEYLSLKNSDLVVPSWHERKPGIGSPTNCDPGSPSIRDKSISFGYGLEMAARPTTCIGIAGDTSTDKARRMFHEARKLKQLTEDSQREFLVDRYKPGVSKVVRFDAKEDYVMKNEKFICNVENTILETFEPIPFADEGDEDA
chain 2: MGEETINSTQNKTRTKTTRPKAVYLWTVSDVLKWYRRHCGEYTQYEQLFAQHDITGRALLRITDSSLQRMGVTDNRDREAIWREIVKQRLKTDIMEIRDMERLNIY
B2: Myc-MEK [Drosophila] / V5-KSR [Drosophila] (parent complex)
chain 1: MSKNKLNLVLPPVNTEATVAAATVAPTPPFKTPSGTDTHSLLGKPKTSIDALTETLEGLDMGDTERKRIKMFLSQKEKIGELSDEDLEKLGELGSGNGGVVMKVRHTHTHLIMARKLIHLEVKPAIKKQILRELKVLHECNFPHIVGFYGAFYSDGEISICMEYMDGGSLDLILKRAGRIPESILGRITLAVLKGLSYLRDNHAIIHRDVKPSNILVNSSGEIKICDFGVSGQLIDSMANSFVGTRSYMSPERLQGTHYSVQSDIWSLGLSLVEMAIGMYPIPPPNTATLESIFADNAEESGQPTDEPRAMAIFELLDYIVNEPPPKLEHKIFSTEFKDFVDICLKKQPDERADLKTLLSHPWIRKAELEEVDISGWVCKTMDLPPSTPKRNTSPN
chain 2: MSSNNNAPASAPDTGSTNANDPISGSLSVDSNLVIIQDMIDLSANHLEGLRTQCAISSTLTQQEIRCLESKLVRYFSELLLAKMRLNERIPANGLVPHTTGNELRQWLRVVGLSQGTLTACLARLTTLEQSLRLSDEEIRQLLADSPSQREEEELRRLTRAMQNLRKCMESLESGTAASNNDPEQWHWDSWDRPTHIHRGSVGNIGLGNNSTASPRTHHRQHGVKGKNSALANSTNFKSGRQSPSATEELNSTQGSQLTLTLTPSPPNSPFTPSSGLSSSLNGTPQRSRGTPPPARKHQTLLSQSHVQVDGEQLARNRLPTDPSPDSHSSTSSDIFVDPNTNASSGGSSSNVLMVPCSPGVGHVGMGHAIKHRFTKALGFMATCTLCQKQVFHRWMKCTDCKYICHKSCAPHVPPSCGLPREYVDEFRHIKEQGGYASLPHVHGAAKGSPLVKKSTLGKPLHQQHGDSSSPSSSCTSSTPSSPALFQQRERELDQAGSSSSANLLPTPSLGKHQPSQFNFPNVTVTSSGGSGGVSLISNEPVPEQFPTAPATANGGLDSLVSSSNGHMSSLIGSQTSNASTAATLTGSLVNSTTTTSTCSFFPRKLSTAGVDKRTPFTSEYTDTHKSNDSDKTVSLSGSASTDSDRTPVRVDSTEDGDSGQWRQNSISLKEWDIPYGDLLLLERIGQGRFGTVHRALWHGDVAVKLLNEDYLQDEHMLETFRSEVANFKNTRHENLVLFMGACMNPPYLAIVTSLCKGNTLYTYIHQRREKFAMNRTLLIAQQIAQGMGYLHAREIIHKDLRTKNIFIENGKVIITDFGLFSSTKLLYCDMGLGVPHNWLCYLAPELIRALQPEKPRGECLEFTPYSDVYSFGTVWYELICGEFTFKDQPAESIIWQVGRGMKQSLANLQSGRDVKDLLMLCWTYEKEHRPQFARLLSLLEHLPKKRLARSPSHPVNLSRSAESVF

Variants of: B1
Experiment: GST pull-down, immunoblot quantification; S2 cells; only GST-HYP and Flag-CNK2–549 co-expressed; anti-Flag blot; parent: 1

| ratio to parent | Variant |
| --- | --- |
| 0.28 | chain 2 I97D |
| 0.24 | chain 2 L90D |
| 0.25 | chain 2 L90D, chain 2 I97D |

Variants of: B1
Experiment: GST pull-down, immunoblot quantification; S2 cells; GST-HYP, Flag-CNK2–549 + RRKM co-expressed; anti-Flag (CNK) blot; parent: 1

| ratio to parent | Variant |
| --- | --- |
| 0.53 | chain 2 I97D |
| 0.24 | chain 2 L90D |
| 0.15 | chain 2 L90D, chain 2 I97D |

Variants of: B1
Experiment: GST pull-down, immunoblot quantification; S2 cells; GST-HYP, V5-KSR, Myc-MEK co-expressed; anti-Flag (CNK) blot; parent: 1

| Variant | ratio to parent |
| --- | --- |
| chain 1 L267R | 0.85 |
| chain 1 M196E | 0.65 |
| chain 1 K33D | 0.84 |
| chain 1 A40F | 0.79 |
| chain 1 H263A | 0.95 |
| chain 1 K109E | 0.81 |

Second part, the variant after the results:

| ratio to parent | Variant |
| --- | --- |
| 0.84 | chain 1 T135F |
| 0.68 | chain 1 R264E |

Variants of: B1
Experiment: GST pull-down, immunoblot quantification; S2 cells; only GST-HYP and Flag-CNK2–549 co-expressed; anti-Flag blot; parent: 1
Remark: another data set of the same source

| ratio to parent | Variant |
| --- | --- |
| 0.12 | chain 1 I122D, chain 1 L151D |
| 0.76 | chain 1 L151D |

Variants of: B1
Experiment: GST pull-down, immunoblot quantification; S2 cells; GST-HYP, Flag-CNK2–549 + RRKM co-expressed; anti-Flag (CNK) blot; parent: 1
Remark: another data set of the same source

| ratio to parent | Variant |
| --- | --- |
| 0.1 | chain 1 I122D, chain 1 L151D |
| 0.33 | chain 1 L151D |

Variants of: B1
Experiment: GST pull-down, immunoblot quantification; S2 cells; GST-HYP, V5-KSR, Myc-MEK co-expressed; anti-Flag (CNK) blot; parent: 1
Remark: another data set of the same source

| Variant | ratio to parent |
| --- | --- |
| chain 1 D194K, chain 1 V197E | 0.27 |
| chain 1 M196E | 0.55 |
| chain 1 D194K | 0.24 |
| chain 1 Q199A | 0.87 |

Results, then the variant that gave them:

| ratio to parent | Variant |
| --- | --- |
| 0.24 | chain 1 V197E |
| 0.94 | chain 1 S193A |

Variants of: B1
Experiment: GST pull-down, immunoblot quantification; S2 cells; only Flag-CNK2–549 and GST-HYP co-expressed; anti-Flag (CNK) blot; parent: 1

| Variant | ratio to parent |
| --- | --- |
| chain 1 D194K, chain 1 V197E | 1.03 |
| chain 1 M196E | 0.82 |
| chain 1 D194K | 0.76 |
| chain 1 Q199A | 0.83 |

The remaining lines, values ahead:

| ratio to parent | Variant |
| --- | --- |
| 0.77 | chain 1 V197E |
| 0.81 | chain 1 S193A |

Variants of: B1
Experiment: GST pull-down, immunoblot quantification; S2 cells; GST-HYP + RRKM (Ha-RASV12, Pyo-RAF, V5-KSR, Myc-MEK) co-expressed; anti-Flag (CNK) blot; parent: 1

| Variant | ratio to parent |
| --- | --- |
| chain 1 M196E | 0.34 |
| chain 1 D194K | 0.24 |
| chain 1 Q199A | 0.72 |

More lines, now with the values ahead:

| ratio to parent | Variant |
| --- | --- |
| 0.21 | chain 1 V197E |
| 0.86 | chain 1 S193A |

Variants of: B1
Experiment: GST pull-down, immunoblot quantification; S2 cells; only Flag-CNK2–549 and GST-HYP co-expressed; anti-Flag (CNK) blot; parent: 1
Remark: another data set of the same source

| ratio to parent | Variant |
| --- | --- |
| 1.27 | chain 1 R98E |
| 0.93 | chain 1 Y75R |
| 1.12 | chain 1 Q83E |
| 0.9 | chain 1 N81E |
| 0.7 | chain 1 N81W |
| 0.73 | chain 1 R45F |
| 0.99 | chain 1 N95E |

Variants of: B1
Experiment: GST pull-down, immunoblot quantification; S2 cells; Flag-CNK2–549, V5-KSR, Myc-MEK, GST-HYP co-expressed; anti-CNK blot; parent: 1

| ratio to parent | Variant |
| --- | --- |
| 0.77 | chain 1 R98E |
| 0.73 | chain 1 Y75R |
| 0.4 | chain 1 Q83E |
| 0.24 | chain 1 N81E |
| 0.09 | chain 1 N81W |
| 0.79 | chain 1 R45F |
| 0.82 | chain 1 N95E |

Variants of: B2
Experiment: anti-V5 immunoprecipitation, immunoblot quantification; S2 cells; V5-KSR and Myc-MEK co-expressed; anti-MEK blot; parent: 1

| ratio to parent | Variant |
| --- | --- |
| 1.24 | chain 2 Y925D |
| 0.9 | chain 2 M902D |
| 0.15 | chain 2 W896R |
| 0.46 | chain 2 K903D |
| 1.51 | chain 2 E926R |

Variants of: B2
Experiment: anti-V5 immunoprecipitation, immunoblot quantification; S2 cells; V5-KSR and Myc-MEK co-expressed; anti-Myc (MEK) blot; parent: 1

| ratio to parent | Variant |
| --- | --- |
| 0.82 | chain 1 E323R |

Variants of: B2
Experiment: as above
Remark: another data set of the same source

| ratio to parent | Variant |
| --- | --- |
| 1.31 | chain 2 R913E |
